Measurements reported in PMC9604523, “Discovery of New Phenylacetone Monooxygenase Variants for the Development of Substituted Indigoids through Biocatalysis” (International Journal of Molecular Sciences, 2022).
Residue numbers refer to the chain shown, from its start. Names and notes keep the numbering of the source.

B1: PAMO (phenylacetone monooxygenase; PAMOWT, PAMOHPCD, PAMOHPED) (Thermobifida fusca YX) (protein)
chain: MAGQTTVDSRRQPPEEVDVLVVGAGFSGLYALYRLRELGRSVHVIETAGDVGGVWYWNRYPGARCDIESIEYCYSFSEEVLQEWNWTERYASQPEILRYINFVADKFDLRSGITFHTTVTAAAFDEATNTWTVDTNHGDRIRARYLIMASGQLSVPQLPNFPGLKDFAGNLYHTGNWPHEPVDFSGQRVGVIGTGSSGIQVSPQIAKQAAELFVFQRTPHFAVPARNAPLDPEFLADLKKRYAEFREESRNTPGGTHRYQGPKSALEVSDEELVETLERYWQEGGPDILAAYRDILRDRDANERVAEFIRNKIRNTVRDPEVAERLVPKGYPFGTKRLILEIDYYEMFNRDNVHLVDTLSAPIETITPRGVRTSEREYELDSLVLATGFDALTGALFKIDIRGVGNVALKEKWAAGPRTYLGLSTAGFPNLFFIAGPGSPSALSNMLVSIEQHVEWVTDHIAYMFKNGLTRSEAVLEKEDEWVEHVNEIADETLYPMTASWYTGANVPGKPRVFMLYVGGFHRYRQICDEVAAKGYEGFVLT
B2: PAMO (phenylacetone monooxygenase; PAMOWT, PAMOHPCD, PAMOHPED) (Thermobifida fusca YX; A442P/L443C/P440F/P94D/Q93N/S441H/S444D) (protein)
chain: B1 chain with Q93N, P94D, P440F, S441H, A442P, L443C, S444D
B3: PAMO (phenylacetone monooxygenase; PAMOWT, PAMOHPCD, PAMOHPED) (Thermobifida fusca YX; A442P/L443E/P440F/P94D/Q93N/S441H/S444D) (protein)
chain: B1 chain with Q93N, P94D, P440F, S441H, A442P, L443E, S444D

How the values were obtained:
purified protein [1] = substrate: NC(=O)C1=CN([C@@H]2O[C@H](COP(=O)(O)OP(=O)(O)OC[C@H]3O[C@@H](n4cnc5c(N)ncnc54)[C@H](OP(=O)(O)O)[C@@H]3O)[C@@H](O)[C@H]2O)C=CC1; assay: purified protein; format: biochemical, Thermobifida fusca; settings: 50 mM phosphate pH 8.0, 1 µM enzyme, NADPH varied 5.0-500 µM, varied: cofactor
purified protein [2] = substrate: c1ccc2[nH]ccc2c1; assay: purified protein; format: biochemical, Thermobifida fusca; settings: 50 mM phosphate pH 8.0, 1 µM enzyme, indole varied 0.05-1 mM, NADPH fixed at saturating concentration
[3] = indole fixed at saturating concentration (wild type does not use indole; NADPH depletion control)
[4] = indole fixed at saturating concentration

Protein | Km (purified protein [1]; [3]) [µM] | kcat (purified protein [1]; [3]) [s⁻¹] | kcat/Km (purified protein [1]; [3]) [M⁻¹ s⁻¹] | Km (purified protein [1]; [4]) [µM] | kcat (purified protein [1]; [4]) [s⁻¹] | kcat/Km (purified protein [1]; [4]) [M⁻¹ s⁻¹] | Km (purified protein [2]) [µM] | kcat (purified protein [2]) [s⁻¹] | kcat/Km (purified protein [2]) [M⁻¹ s⁻¹]
B1 | 0.9 | 4.8 | 5.2e+06 | – | – | – | – | – | –
B2 | – | – | – | 7.6 | 6.8 | 900000 | 58.2 | 5.4 | 93000
B3 | – | – | – | 4.4 | 1.9 | 430000 | 109.0 | 1.7 | 16000
